Source: publication doi:10.1101/2024.11.20.624382, “Reconstitution of SPO11-dependent double-strand break formation” (bioRxiv, 2024)

T1: SPO11 (beta isoform), WT, in complex with TOP6BL;TOP6BL (Mus musculus;Mus musculus, UniProt Q9WTK8;J3QMY9 1-396;1-579, |)
T1 sequence 1: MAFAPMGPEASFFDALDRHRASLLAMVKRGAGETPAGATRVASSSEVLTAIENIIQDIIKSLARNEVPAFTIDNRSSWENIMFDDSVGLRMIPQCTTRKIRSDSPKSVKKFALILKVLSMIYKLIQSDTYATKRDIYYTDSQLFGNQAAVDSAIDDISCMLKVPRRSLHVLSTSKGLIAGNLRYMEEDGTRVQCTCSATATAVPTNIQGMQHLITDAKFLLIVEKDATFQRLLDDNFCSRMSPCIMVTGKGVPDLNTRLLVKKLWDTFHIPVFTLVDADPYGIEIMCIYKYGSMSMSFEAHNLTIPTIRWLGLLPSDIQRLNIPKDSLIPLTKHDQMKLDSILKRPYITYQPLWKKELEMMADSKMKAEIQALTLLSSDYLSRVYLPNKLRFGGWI
T1 sequence 2: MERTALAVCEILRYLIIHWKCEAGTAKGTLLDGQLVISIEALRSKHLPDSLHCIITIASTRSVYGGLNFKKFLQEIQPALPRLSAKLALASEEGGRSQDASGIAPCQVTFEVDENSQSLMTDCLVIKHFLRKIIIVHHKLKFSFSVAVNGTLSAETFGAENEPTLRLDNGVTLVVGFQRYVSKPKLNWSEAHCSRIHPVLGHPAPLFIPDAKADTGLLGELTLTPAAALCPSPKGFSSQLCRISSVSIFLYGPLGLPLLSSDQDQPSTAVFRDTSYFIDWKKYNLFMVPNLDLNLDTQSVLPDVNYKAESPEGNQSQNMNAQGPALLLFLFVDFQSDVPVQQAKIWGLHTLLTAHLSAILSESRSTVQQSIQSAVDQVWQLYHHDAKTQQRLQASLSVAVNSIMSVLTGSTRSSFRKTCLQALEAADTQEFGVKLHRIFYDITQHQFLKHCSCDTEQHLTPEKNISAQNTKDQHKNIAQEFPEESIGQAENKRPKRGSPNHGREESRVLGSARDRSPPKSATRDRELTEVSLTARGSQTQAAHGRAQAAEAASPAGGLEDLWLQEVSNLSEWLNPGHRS

B1: oligonucleotide cleavage substrate, 44 bp duplex with A4 loops (structured_DNA)
DNA: CGGTTCAAAAGAACCGGAGCTGAATGAAGCCATACCAAACGACGAGCGTGACACAAAAGTGTCACGCTCGTCGTTTGGTATGGCTTCATTCAGCTC
modifications: circular, ligated by T4 DNA ligase
B2: mouse TOP6BL (Topoisomerase VIB-like) (natural protein, UniProt J3QMY9-1 1-579, looked up)
chain: T1 sequence 2
notes: TOP6BL, mouse, untagged, full-length optimized coding DNA
B3: Flag-tagged mouse SPO11 (natural protein, UniProt Q9WTK8-1 1-396, looked up)
chain: T1 sequence 1
notes: SPO11, mouse, b splicing isoform (includes exon 2), full-length optimized coding DNA; A TEV cleavage site stands between the Flag tag and SPO11; no cleavage is described; also called FlagSPO11; SPO11b; not shown: Flag, N-terminal, kept

Experiments:
[1] = molecular target: T1, SPO11 (beta isoform), WT, in complex …; test: EMSA; apparent Kd (first monomer complex); 5 mM Mg2+, 4 C, 50 mM NaCl; doubly bound complexes form; EMSA: 25 mM Tris-HCl pH 7.5, 100 mM NaCl, 5 mM MgCl2, 2 mM DTT, 7.5% glycerol, 1 mg/ml BSA, 0.1 nM DNA, 30 C 30 min; cleavage substrate: 25 mM HEPES-NaOH pH 7.5, 50 mM NaCl, 5 mM MgCl2, 2 mM DTT, 7.5% glycerol, 1 mg/ml BSA, 4 C 30 min; settings: protein: recombinant;recombinant; tags: N-terminal Flag-TEV;untagged; copies: 1;1; label: internal 32P (5'-labeled before ligation); closed dumbbell, 44 bp duplex, A4 loop at both ends
[2] = molecular target: B3; test: SEC; Superdex 200 Increase 10/300 GL after anti-Flag M2 affinity purification of the co-expressed proteins; lysis buffer 25 mM HEPES-NaOH pH 7.5, 500 mM NaCl; settings: both partners purified
[3] = molecular target: B2; test: mass photometry; Refeyn OneMP; 28 nM protein; 25 mM HEPES-NaOH pH 7.5, 150 mM NaCl, 2 mM DTT; with 5 mM ATP; settings: both partners purified

Binder: B1
- Kd [1]: 1.8 nM

Binder: B2
- stoichiometry N [2]: 1

Binder: B3
- binding result [3]: binds
